Test results taken from article PMC7076219.

Assays:
[1] = biological target: ligands on KG1a cells (human (endogenous in KG1a)); test: flow cytometry on cells; KG1a cells stained with 10 ug/ml E-selectin protein in HBSS with 5% FBS and 2 mM CaCl2, 4 °C, 20 min; detected by Strep-tag II mAb and PE anti-mouse IgG1
[2] = biological target: CD44/HCELL (hematopoietic cell E- and/or L-selectin ligand) (human (endogenous in KG1a)) (UniProt P16070); test: SPR; Biacore T-100, CM5 chip, 25 °C; CD44/HCELL captured from KG1a lysate by immobilised Hermes-3; E-selectin proteins injected in sequential concentrations at 20 ul/min, 90 s each; running buffer 50 mM Tris pH 8.0, 1% Triton X-100, 50 mM NaCl, 1 mM CaCl2; isotype control subtracted; kon calculated from KD and koff
Chain of CD44/HCELL (hematopoietic cell E- and/or L-selectin ligand) (human (endogenous in KG1a)) (P16070 other isoform, or with tags, fused parts or gaps): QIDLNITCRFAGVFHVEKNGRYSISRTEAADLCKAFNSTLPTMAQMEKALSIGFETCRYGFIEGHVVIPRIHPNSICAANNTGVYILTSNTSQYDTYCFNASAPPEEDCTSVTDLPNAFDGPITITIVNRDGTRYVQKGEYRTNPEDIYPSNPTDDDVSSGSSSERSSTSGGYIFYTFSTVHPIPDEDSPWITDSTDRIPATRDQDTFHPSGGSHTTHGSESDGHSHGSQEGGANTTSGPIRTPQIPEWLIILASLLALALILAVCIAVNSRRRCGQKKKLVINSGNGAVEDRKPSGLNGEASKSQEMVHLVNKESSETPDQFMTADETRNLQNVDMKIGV

[3] = biological target: E-S6-IgG (mouse E-selectin extracellular region fused to the Fc region of human IgG1, from silkworm) (mouse | human) (UniProt Q00690); test: native gel or EMSA; purified E-selectin proteins in native PAGE sample buffer on a 10% TBE gel, Tris-glycine buffer, Coomassie stain

Substance | fluorescence signal (geometric mean) [1] | fluorescence signal, fold lower than E-S6 [1] [fold] | percent of the live KG1a population bound [1] [%] | Kd [2] [µM] | kon [2] [M⁻¹ s⁻¹] | stoichiometry N [3]
E-S2-A28H (E-S2 with the A28H mutation in the lectin domain) (domain or fragment) | 1690 | 2 | 84 | 2.5 | 80 | –
E-S0 (mouse E-selectin lectin and EGF domains, no SCR domains) (domain or fragment) | – | – | 43 | 17.2 | 4 | –
E-S6-IgG (mouse E-selectin extracellular region fused to the Fc region of human IgG1, from silkworm) (from UniProt Q00690 22-557) (Fc fusion) | – | – | 96 | 0.17 | 950 | 2
E-S2 (truncated mouse E-selectin with only the first two SCR domains) (domain or fragment) | – | 3 | 76 | 5.68 | 30 | –
